Assay results published in article PMC3384314.
Residue numbers refer to the chain shown, from its start.

Assays:
dHEXIM ILAA = molecular target: T1, dHEXIM ILAA (Drosophila, UniProt Q7K4N7 1-349, K42I;H43L;R44A;R45A); test: EMSA
T1 sequence: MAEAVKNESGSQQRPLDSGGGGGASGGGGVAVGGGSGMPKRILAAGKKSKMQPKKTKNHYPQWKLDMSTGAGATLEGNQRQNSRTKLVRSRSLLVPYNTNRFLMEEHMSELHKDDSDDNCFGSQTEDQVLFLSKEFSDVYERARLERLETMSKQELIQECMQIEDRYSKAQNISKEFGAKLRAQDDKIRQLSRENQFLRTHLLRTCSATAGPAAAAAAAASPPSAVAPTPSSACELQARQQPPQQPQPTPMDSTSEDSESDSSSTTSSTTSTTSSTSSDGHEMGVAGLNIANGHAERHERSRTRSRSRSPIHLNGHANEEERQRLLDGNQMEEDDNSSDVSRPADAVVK

dHEXIM WT = molecular target: T2, dHEXIM WT (Drosophila, UniProt Q7K4N7 1-349); test: EMSA
T2 sequence: T1 sequence with I42K, L43H, A44R, A45R

B1: dsRNA oligo (TTF2 25-mer) (dsRNA)
RNA 1: CAAGCAAGAGGCAGAGAUCCCAGGU
RNA 2: ACCUGGGAUCUCUGCCUCUUGCUUG
binding result (dHEXIM ILAA): no binding | binding result (dHEXIM WT): binds
